Results: patent US11427805B2, “Methods of producing human foregut endoderm cells expressing PDX1 from human definitive endoderm” (ViaCyte, Inc., priority 2005, dated 2022)

Key:
Type in all cases: cell-based, human
[1] = test system: definitive endoderm; assay: Dorsal / ventral / PDX1-negative foregut endoderm differentiation from definitive endoderm (marker gene expression); details: for specification of definitive endoderm into foregut endoderm: FGF10 5-500 ng/ml, KAAD-cyclopamine 0.1-2 μM
Method: Definitive endoderm was produced from undifferentiated hESCs using a three or five day protocol in which activin A was provided to the culture medium at a concentration of 100 ng/ml each day. For both dorsal and ventral differentiation, the medium composition for the first five days was as follows: Day 1—RPMI+0% fetal bovine serum (FBS), Day 2—RPMI+0.2% PBS, Day 3—RPMI+2.0% FBS, Day 4—RPMI+2.0% FBS and Day 5—RPMI+2.0% FBS. For the ventral differentiation, definitive endoderm was produced for 3 days in activin A at 100 ng/ml and then exposed to BMP4 at 3 ng/ml and FGF10 at 50 ng/ml. […] For the dorsal differentiation procedure, definitive endoderm was produced for 5 days in activin A at 100 ng/ml and then exposed to retinoic acid (RA) at 2 μM and activin A at 25 ng/ml in CMRL medium containing B27 supplement (1:200).
Four separate conditions were used to treat hESCs that result in varying proportions of differentiation to definitive endoderm. All four conditions utilized RPMI supplemented with 0% FBS on the first day, 0.2% FBS on second day, and 2% FBS on days 3 and 4. The four conditions were as follows: (a) BMP4 at 100 ng/mL with SU5402 at 5 μM; (b) no exogenous growth factors; (c) activin A at 15 ng/mL; and (d) activin A at 100 ng/ml. […] All cultures were then incubated for 2 days with BMP4 at 3 ng/mL, FGF10 at 50 ng/ml and KAAD-cyclopamine at 0.5 μM in a base medium of 2% FBS in RPMI followed by 6 days with BMP4 at 3 ng/mL, FGF10 at 50 ng/ml and KAAD-cyclopamine at 0.5 μM in a base medium composed of CMRL with 1:200 dilution of B27 extract.
Definitive endoderm was produced by exposing undifferentiated hESCs to activin at 100 ng/mL in RPMI base medium supplemented with 0%, 0.2%, and 2% FBS on days 1 through 3, respectively. After 3 days of activin A treatment, the cultures were switched to a base medium composed of RPMI containing 2% FBS and maintained under one of the following conditions: (a) BMP4 at 3 ng/ml with FGF10 at 50 ng/ml and KAAD-cyclopamine at 0.5 μM; (b) FGF10 at 50 ng/ml and KAAD-cyclopamine at 0.5 μM; or (c-e) no exogenous factors. After two days, the base medium was changed to CMRL plus B27 supplement (1:200) and cells were maintained according to conditions (a-c) above. Alternatively, cells were maintained with no exogenous factors in RPMI with B27 supplement (1:200) (condition (d)) or RPMI with 2% FBS (condition (e)). The same factor treatment conditions were maintained for 8 more days of differentiation.
Human embryonic stem cells were differentiated for 7 days via a 2-step protocol to achieve PDX1 cells. The first step comprised 5 days differentiation in activin A (100 ng/ml) to robustly produce DE (D'Amour, K., et al., Nature Biotechnology 23, 1534-1541, (2005)). […]

[2] = test system: PDX1 gene expression; assay: Q-PCR of PDX1 gene expression in hESC-derived definitive endoderm cultures; details: for PDX1 induction over RA alone: added to 1 μM RA on day four, ninety six hours (FIG. 37A)
Method: (§1) Human embryonic stem cells were cultured with or without activins for four days. On day four, 1 μM RA and 50 ng/ml FGF-10 were added to the cell culture. Forty-eight hours after the RA/FGF-10 addition, the expression of the PDX1 marker gene and other marker genes not specific to foregut endoderm were quantitated by Q-PCR.
(§2) As in the previous Example, hESCs were cultured with or without activins for four days. On day four, the cells were treated with one of the following: 1 μM RA alone; 1 μM RA in combination with either FGF-4 or FGF-10; or 1 μM RA in combination with both FGF-4 and FGF-10. The expression of PDX1, SOX7 and NFM were quantitated by Q-PCR ninety six hours after RA or RA/FGF.
Human embryonic stem cells were cultured with or without activins for four days. On day four, FGF-10 at 50 ng/ml was added to the culture in combination with RA at 0.04 μM, 0.2 μM or 1.0 μM. The expression of the PDX1 marker gene as well as other markers not specific for foregut endoderm were quantitated by Q-PCR.
Human embryonic stem cells were induced to differentiate to definitive endoderm by treatment of undifferentiated hES cells grown on mouse embryonic fibroblast feeders with high dose activin A (100-200 ng/ml in 0.5-2% FBS/DMEM/F12) for 4 days. The no activin A control received 0.5-2% FBS/DMEM/F12 with no added activin A. At four days, cultures received either no activin A in 2% FBS (none), and in 2% serum replacement (SR), or 50 ng/ml activin A together with 2 μM RA and 50 ng/ml FGF-10 in 2% FBS/DMEM/F12 (none, +FBS, +B27) and similarly in 2% Serum replacement (SR). B27 supplement, (Gibco/BRL), was added as a 1/50 dilution directly into 2% FBS/DMEM/F12 (+B27). Duplicate cell samples where taken for each point, and total RNA was isolated and subjected to Q-PCR as previously described.
Human embryonic stem cells were induced to differentiate to definitive endoderm by treatment of undifferentiated hESCs grown on mouse embryonic fibroblast feeders with high dose activin A (50 ng/ml) in low serum/RPMI for 6 days. The FBS dose was 0% on day one, 0.2% on day two and 2% on days 3-6. The negative control for definitive endoderm production (NF) received 2% FBS/RPMI with no added activin A. In order to induce PDX1 expression, each of the cultures received retinoic acid at 2 μM in 2% FBS/RPMI on day 6. The cultures treated with activin A on days one through five were provided with different dosing combinations of activin A and activin B or remained in activin A alone at 50 ng/ml. The no activin A control culture (NF) was provided neither activin A nor activin B. This RA/activin treatment was carried out for 3 days at which time PDX1 gene expression was measured by Q-PCR from duplicate cell samples.
The definitive endoderm cultures generated by 5 days of activin A treatment were then induced to differentiate to PDX1 expressing endoderm by the addition of RA in 2% FBS/RPMI containing activin A at 25 ng/ml for four days. The RA was 2 μM for the first two days of addition, 1 μM on the third day and 0.5 μM on the fourth day. This base medium for PDX1 induction was provided fresh (2A25R) or after conditioning for 24 hours by one of four different cell populations. Conditioned media (CM) were generated from either mouse embryonic fibroblasts (MEFCM) or from hESCs that were first differentiated for 5 days by one of three conditions; i) 3% FBS/RPMI (CM2), or ii) activin A (CM3) or iii) bone morphogenic protein 4 (BMP4) (CM4). […]

[3] = test system: definitive endoderm cells; assay: Maintenance and expansion of definitive endoderm cells in culture; details: in the presence of activin
Description: Definitive endoderm cells produced by methods described herein have been maintained and expanded in culture in the presence of activin for greater than 50 days without appreciable differentiation. In such cases, SOX17, CXCR4, MIXL1, GATA4, HNF3β expression is maintained over the culture period. Additionally, TM, SPARC, OCT4, AFP, SOX7, ZIC1 and BRACH were not detected in these cultures. It is likely that such cells can be maintained and expanded in culture for substantially longer than 50 days without appreciable differentiation.

[4] = test system: definitive endoderm cells; assay: Q-PCR of marker genes other than PDX1 in hESC-derived definitive endoderm cultures; details: FIG. 40B
Method: as §1, §2
Human embryonic stem cells were cultured with or without activins for four days. […] The expression of the PDX1 marker gene as well as other markers not specific for foregut endoderm were quantitated by Q-PCR.
Human embryonic stem cells were induced to differentiate to definitive endoderm by treatment of undifferentiated hESCs grown on mouse embryonic fibroblast feeders with high dose activin A (50 ng/ml) in low serum/RPMI for 6 days. […] The no activin A control culture (NF) was provided neither activin A nor activin B. This RA/activin treatment was carried out for 3 days at which time PDX1 gene expression was measured by Q-PCR from duplicate cell samples. […]

[5] = test system: SOX17 gene expression; assay: Q-PCR of SOX17 gene expression in differentiating hESCs; details: added to activin A and activin B treated cultures (FIG. 23)
Method: In the following experiments, real-time quantitative RT-PCR (Q-PCR) was the primary assay used for screening the effects of various treatments on hESC differentiation. In particular, real-time measurements of gene expression were analyzed for multiple marker genes at multiple time points by Q-PCR. Marker genes characteristic of the desired as well as undesired cell types were evaluated to gain a better understanding of the overall dynamics of the cellular populations. The strength of Q-PCR analysis includes its extreme sensitivity and relative ease of developing the necessary markers, as the genome sequence is readily available. Furthermore, the extremely high sensitivity of Q-PCR permits detection of gene expression from a relatively small number of cells within a much larger population. In addition, the ability to detect very low levels of gene expression provides indications for “differentiation bias” within the population. The bias towards a particular differentiation pathway, prior to the overt differentiation of those cellular phenotypes, is unrecognizable using immunocytochemical techniques. […] Additionally, Q-PCR provides a mechanism by which to evaluate the success of a differentiation protocol in a quantitative format at semi-high throughput scales of analysis.
The approach taken here was to perform relative quantitation using SYBR Green chemistry on a Rotor Gene 3000 instrument (Corbett Research) and a two-step RT-PCR format. Such an approach allowed for the banking of cDNA samples for analysis of additional marker genes in the future, thus avoiding variability in the reverse transcription efficiency between samples.
To generate PCR template, total RNA was isolated using RNeasy (Qiagen) and quantitated using RiboGreen (Molecular Probes). Reverse transcription from 350-500 ng of total RNA was carried out using the iScript reverse transcriptase kit (BioRad), which contains a mix of oligo-dT and random primers. Each 20 μL reaction was subsequently diluted up to 100 μL total volume and 3 μL was used in each 10 μL Q-PCR reaction containing 400 nM forward and reverse primers and 5 μL 2×SYBR Green master mix (Qiagen). Two step cycling parameters were used employing a 5 second denature at 85-94° C. (specifically selected according to the melting temp of the amplicon for each primer set) followed by a 45 second anneal/extend at 60° C. Fluorescence data was collected during the last 15 seconds of each extension phase. A three point, 10-fold dilution series was used to generate the standard curve for each run and cycle thresholds (Ct's) were converted to quantitative values based on this standard curve. The quantitated values for each sample were normalized to housekeeping gene performance and then average and standard deviations were calculated for triplicate samples. At the conclusion of PCR cycling, a melt curve analysis was performed to ascertain the specificity of the reaction. A single specific product was indicated by a single peak at the Tm appropriate for that PCR amplicon.
A first step in establishing the Q-PCR methodology was validation of appropriate housekeeping genes (HGs) in the experimental system. […] We measured the expression levels of Cyclophilin G, hypoxanthine phosphoribosyltransferase 1 (HPRT), beta-2-microglobulin, hydroxymethylbiane synthase (HMBS), TATA-binding protein (TBP), and glucoronidase beta (GUS) in differentiating hESCs. […] We routinely used both Cyclophilin G and GUS to calculate a normalization factor for all samples. The use of multiple HGs simultaneously reduces the variability inherent to the normalization process and increases the reliability of the relative gene expression values.
We were the first to analyze and describe the effect of TGFβ family growth factors, such as Nodal/activin/BMP, for use in creating definitive endoderm cells from embryonic stem cells in in vitro cell cultures. […]

CC1=C2C[C@H]3[C@@H](CC=C4CC(=O)CC[C@@]43C)[C@@H]2CC[C@]12O[C@@H]1C[C@H](C)CN(CCNC(=O)CCCCCNC(=O)CCc3ccccc3)[C@H]1[C@H]2C [KAAD-cyclopamine, reference compound]
specification of definitive endoderm into foregut endoderm [1]: further specified definitive endoderm cells into the foregut endoderm domain

CC1=C(/C=C/C(C)=C/C=C/C(C)=C/C(=O)O)C(C)(C)CCC1 [retinoic acid, reference compound]
increase in PDX1 gene expression ([2]; activin for four days followed by 1 μM RA, ninety six hours): 60 fold

activin
time definitive endoderm cells were maintained and expanded in culture without appreciable differentiation [3]: greater than 50 days
PDX1 expression in activin treated cell cultures relative to cultures that received no activin prior to RA application ([2]; four days with or without activins, then 1 μM RA and 50 ng/ml FGF-10 for 48 hours): 160 fold

B1: activin B (protein, UniProt P09529 293-407, looked up)
Inhibin beta B chain: GLECDGRTNLCCRQQFFIDFRLIGWNDWIIAPTGYYGNYCEGSCPAYLAGVPGSASSFHTAVVNQYRMRGLNPGTVNSCCIPTKLSTMSMLYFDDEYNIVKRDVPNMIVEECGCA
modifications: Inhibin beta B chain
HNF6 expression [4]: without increase in HNF6 expression
increase in PDX1 expression over the culture that received only activin A at 50 ng/ml ([2]; activin B 10-50 ng/ml with 25 or 50 ng/ml activin A and 2 μM RA, 3 days (FIG. 40A)): at least 2 fold

B2: FGF-4 (protein, UniProt P08620 31-206, looked up)
Fibroblast growth factor 4: APTAPNGTLEAELERRWESLVALSLARLPVAAQPKEAAVQSGAGDYLLGIKRLRRLYCNVGIGFHLQALPDGRIGGAHADTRDSLLELSPVERGVVSIFGVASRFFVAMSSKGKLYGSPFFTDECTFKEILLPNNYNAYESYKYPGMFIALSKNGKTKKGNRVSPTMKVTHFLPRL
notes: fibroblast growth factor
PDX1 induction over RA alone [2]: approximately 3 fold

B3: Wnt3a (protein, UniProt P56704 19-352, looked up)
Protein Wnt-3a: SYPIWWSLAVGPQYSSLGSQPILCASIPGLVPKQLRFCRNYVEIMPSVAEGIKIGIQECQHQFRGRRWNCTTVHDSLAIFGPVLDKATRESAFVHAIASAGVAFAVTRSCAEGTAAICGCSSRHQGSPGKGWKWGGCSEDIEFGGMVSREFADARENRPDARSAMNRHNNEAGRQAIASHMHLKCKCHGLSGSCEVKTCWWSQPDFRAIGDFLKDKYDSASEMVVEKHRESRGWVETLRPRYTYFKVPTERDLVYYEASPNFCEPNPETGSFGTRDRTCNVSSHGIDGCDLLCCGRGHNARAERRREKCRCVFHWCCYVSCQECTRVYDVHTCK
notes: Wnt family growth factor
SOX17 expression relative to activin A and activin B alone [5]: increases SOX17 expression

B4: FGF-10 (protein, UniProt O15520 38-208, looked up)
Fibroblast growth factor 10: QALGQDMVSPEATNSSSSSFSSPSSAGRHVRSYNHLQGDVRWRKLFSFTKYFLKIEKNGKVSGTKKENCPYSILEITSVEIGVVAVKAINSNYYLAMNKKGKLYGSKEFNNDCKLKERIEENGYNTYASFNWQHNGRQMYVALNGKGAPRRGQKTRRKNTSAHFLPMVVHS
notes: fibroblast growth factor
specification of definitive endoderm into foregut endoderm [1]: beneficial
PDX1 induction over RA alone [2]: 60 fold

B5: BMP4 (protein, UniProt P12644 293-408, looked up)
Bone morphogenetic protein 4: SPKHHSQRARKKNKNCRRHSLYVDFSDVGWNDWIVAPPGYQAFYCHGDCPFPLADHLNSTNHAIVQTLVNSVNSSIPKACCVPTELSAISMLYLDEYDKVVLKNYQEMVVEGCGCR
notes: bone morphogenic protein 4, member of the TGFβ family
production of PDX1-positive ventral foregut endoderm ([1]; after 3 days activin 100 ng/mL, FGF10 50 ng/ml, KAAD-cyclopamine 0.5 μM, BMP4 3 ng/ml (FIGS. 52A, 52B)): not needed
